Among the data in publication PMC3105044, “The Membrane Bound LRR Lipoprotein Slr, and the Cell Wall-Anchored M1 Protein from Streptococcus pyogenes Both Interact with Type I Collagen” (PLoS ONE, 2011) are Kd values, retold here.

Test [1] concerns the target Collagen type I (UniProt P02452). In words: SPR; collagen I immobilised by amine coupling on a CM3 chip (about 1500 RU); Slr or M1 diluted 2-fold from 500 nM, 35 µl/min, in 10 mM HEPES, 150 mM NaCl, 0.005% Surfactant P20, pH 7.5; BIAcore 2000; 1:1 Langmuir fit. Background: Surface plasmon resonance follows binding to a sensor surface in real time, without labels.
In test [2] the target is T1, Collagen type I (UniProt P02452 162-1218; P08123 80-1119).
T1 construct: collagen I alpha1 chain (printed as the α1 chain, 134 kDa); collagen I alpha2 chain (printed as the α2 chain, 130 kDa); Used non-denatured, denatured with 4 M guanidine hydrochloride, monomeric and fibrillar; also called collagen I; monomeric collagen I; source: bought: Sigma
T1 sequence (P02452 162-1218, chain 1 of 2): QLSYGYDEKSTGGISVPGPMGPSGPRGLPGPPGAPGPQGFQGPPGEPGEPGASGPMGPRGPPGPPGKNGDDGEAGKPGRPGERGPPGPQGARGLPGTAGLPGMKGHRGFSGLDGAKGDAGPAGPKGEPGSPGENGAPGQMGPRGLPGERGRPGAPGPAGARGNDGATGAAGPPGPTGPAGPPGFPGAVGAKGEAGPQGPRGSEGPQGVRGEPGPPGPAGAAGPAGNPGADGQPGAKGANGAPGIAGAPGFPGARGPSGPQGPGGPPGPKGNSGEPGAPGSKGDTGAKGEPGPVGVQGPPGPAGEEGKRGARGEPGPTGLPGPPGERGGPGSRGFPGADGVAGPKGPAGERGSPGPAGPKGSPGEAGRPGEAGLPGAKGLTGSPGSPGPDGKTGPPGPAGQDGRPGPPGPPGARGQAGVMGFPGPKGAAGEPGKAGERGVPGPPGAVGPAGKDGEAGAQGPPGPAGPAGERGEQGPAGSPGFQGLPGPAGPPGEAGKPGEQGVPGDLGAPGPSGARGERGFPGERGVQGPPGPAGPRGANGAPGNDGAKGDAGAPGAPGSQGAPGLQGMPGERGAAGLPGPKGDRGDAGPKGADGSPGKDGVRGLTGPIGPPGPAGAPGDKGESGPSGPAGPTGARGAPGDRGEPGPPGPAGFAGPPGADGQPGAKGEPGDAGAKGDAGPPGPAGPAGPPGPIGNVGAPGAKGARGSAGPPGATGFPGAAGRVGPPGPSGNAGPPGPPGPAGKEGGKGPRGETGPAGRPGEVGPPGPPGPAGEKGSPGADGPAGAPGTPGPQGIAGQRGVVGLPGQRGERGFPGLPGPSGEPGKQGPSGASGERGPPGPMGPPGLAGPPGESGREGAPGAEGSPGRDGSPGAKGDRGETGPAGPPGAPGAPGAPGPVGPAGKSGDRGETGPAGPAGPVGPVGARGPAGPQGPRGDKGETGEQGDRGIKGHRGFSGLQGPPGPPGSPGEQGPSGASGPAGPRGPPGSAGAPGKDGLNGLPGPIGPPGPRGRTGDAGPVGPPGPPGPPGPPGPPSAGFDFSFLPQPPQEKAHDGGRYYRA
T1 sequence (P08123 80-1119, chain 2 of 2): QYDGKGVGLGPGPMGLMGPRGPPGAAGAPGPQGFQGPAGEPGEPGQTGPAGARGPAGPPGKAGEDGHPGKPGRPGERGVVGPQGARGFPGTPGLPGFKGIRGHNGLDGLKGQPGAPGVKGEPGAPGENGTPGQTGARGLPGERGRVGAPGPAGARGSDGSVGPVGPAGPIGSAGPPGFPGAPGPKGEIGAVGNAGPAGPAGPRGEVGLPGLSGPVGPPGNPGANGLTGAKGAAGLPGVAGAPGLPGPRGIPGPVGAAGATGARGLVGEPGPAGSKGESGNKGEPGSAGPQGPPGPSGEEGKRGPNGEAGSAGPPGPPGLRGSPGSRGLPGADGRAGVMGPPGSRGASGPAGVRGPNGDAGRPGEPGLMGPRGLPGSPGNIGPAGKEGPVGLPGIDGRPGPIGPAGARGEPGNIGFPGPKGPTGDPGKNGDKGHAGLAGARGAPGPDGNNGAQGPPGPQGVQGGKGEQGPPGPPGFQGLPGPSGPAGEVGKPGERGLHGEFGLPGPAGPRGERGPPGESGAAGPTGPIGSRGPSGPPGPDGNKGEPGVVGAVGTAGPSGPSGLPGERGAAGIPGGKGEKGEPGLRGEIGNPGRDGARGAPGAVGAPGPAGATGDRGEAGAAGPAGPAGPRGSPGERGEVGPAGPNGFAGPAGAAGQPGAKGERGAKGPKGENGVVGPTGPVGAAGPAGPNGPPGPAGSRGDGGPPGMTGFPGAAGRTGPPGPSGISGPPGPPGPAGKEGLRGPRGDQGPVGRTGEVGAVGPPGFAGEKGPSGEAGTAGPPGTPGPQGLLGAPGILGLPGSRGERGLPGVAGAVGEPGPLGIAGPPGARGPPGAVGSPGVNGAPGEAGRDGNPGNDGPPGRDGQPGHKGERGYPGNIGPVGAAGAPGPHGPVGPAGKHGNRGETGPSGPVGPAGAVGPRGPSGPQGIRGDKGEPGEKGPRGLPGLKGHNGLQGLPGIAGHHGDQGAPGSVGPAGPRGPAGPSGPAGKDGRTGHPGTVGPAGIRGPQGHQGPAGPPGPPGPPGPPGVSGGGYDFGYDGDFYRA
The description is as above. To be noted: both partners purified.

Chain of Collagen type I (UniProt P02452) (P02452 162-1218, chain 1 of 2): as the sequence (P02452 162-1218, chain 1 of 2) above
Chain of Collagen type I (UniProt P02452) (P08123 80-1119, chain 2 of 2, further chain): as the sequence (P08123 80-1119, chain 2 of 2) above

With “streptococcal leucine rich (Slr) protein, recombinant, GST tag removed (from UniProt F8THZ1 1-792) (natural protein)”, the Kd (in general, a measure of binding affinity in units of concentration) in the test with Collagen type I [1] was 0.012 µM.

B1: M1 protein from Streptococcus pyogenes, purified from culture supernatants of strain MC25 (natural protein)
chain: NGDGNPREVIEDLAANNPAIQNIRLRYENKDLKARLENAMEVAGRDFKRAEELEKAKQALEDQRKDLETKLKELQQDYDLAKESTSWDRQRLEKELEEKKEALELAIDQASRDYHRATALEKELEEKKKALELAIDQASQDYNRANVLEKELETITREQEINRNLLGNAKLELDQLSSEKEQLTIEKAKLEEEKQISDASRQSLRRDLDASREAKKQVEKDLANLTAELDKVKEDKQISDASRQGLRRDLDASREAKKQVEKDLANLTAELDKVKEEKQISDASRQGLRRDLDASREAKKQVEKALEEANSKLAALEKLNKELEESKKLTEKEKAELQAKLEAEAKALKEQLAKQAEELAKLRAGKASDSQTPDTKPGNKAVPGKGQAPQAGTKPNQNKAPMKETKRQLPST
B1 displayed a Kd in the test with Collagen type I [2] of 0.054 µM.
